B1: recombinant kinetoplastid membrane protein-11 (r-KMP-11), wild type (natural protein, Leishmania donovani)
chain: MATTYEEFSAKLDRLDQEFNRKMQEQNAKFFADKPDESTLSPEMREHYEKFERMIKEHTEKFNKKMHEHSEHFKQKFAELLEQQKAAQYPSK
B2: Alexa488-maleimide labelled r-KMP-11 S38C (natural protein, Leishmania donovani)
chain: B1 chain with S38C
modifications: Alexa 488 maleimide on the single cysteine (S38C); labeling percentage 86%

Series [1] deals with the molecule itself. Put plainly: negative stain electron microscopy.
Series [2] has as its target B1. Put plainly: fluorescence correlation spectroscopy.
Series [3] concerns the molecule itself. Kind of series: single-molecule photobleaching step analysis.

Residue numbers refer to the chain shown, from its start. Names may count otherwise.

For B1, in series [1], the “stoichiometry N” value was found to be 4.

Regarding B2, the binding result in series [2] is given as “binds”. For the same molecule, the “stoichiometry N” value in series [3] was determined as 4.

For orientation: stoichiometry N means a count of units in the complex or per binding partner.

These data come from doi:10.1101/2024.07.15.603533 (bioRxiv, 2024).
